{"source": "the PETadex activity labels"}
{"substrate": "BHET", "settings": "120 h"}
{"protein": "unnamed (protein) MIEIRSSYKSKKTNCKRSVMPSMITKKAALPFVISSALLFSASAFAITPPSDPDPDPTPCEGDCDFTRGPDPTESMLEARSGPFNVDTVNVSSRVSGFGGGTIHYPTNTSGQMGAIVVAPGFVSPESSIGWWGPQLASHGFIVMTIATNSLYDQPDSRRDQLEAGLDYLISQSNSSGSDISGMVDSSRLGAMGWSMGGGGALQLAADGRLSAAIPLAPYNSSRNDFDDITTPTLIFACENDAVAAVRSHASPFYNDIPGSTDKAFVEINGGAHSCANGGNTNNSLLSKYGVSWMKLHLDQDQRYSQFLCGPNHESDRSISEYRGTCPY", "plate clearing": "not clears the plate"}
{"protein": "unnamed (protein) MEISKKKCLIGLGLMAMAMGVQAQTNPLAKGPDPTNASIQANGPFAVTTVTISNANANGYGGATVYVPTAAGTYALVAFSPGFTARQDTIAVIGRRLATHGFVVATIDTNSTLDLPDSRGTQLLAALRSVAALNAGNTAAAGKIDTTRLVVTGHSMGGGGTLFASRTNTAIKAGVPIAPFSSGVKNFATPVPQFILGGEVDNVAPVDEHSIPFFNGLPNATPKVYAELNGEDHFFVSESTPNQPASKFQIAWIKRFADNDARYTQFVNSAGVAVERNNGRLSDGRLESF", "plate clearing": "not clears the plate"}
{"protein": "unnamed (protein) MKTSRTRTATTTLTRLARLALAAAALLLSAAAQAQSSNPYQRGPDPTAASLEASAGPFAVSTTTVSSASGFGGGTIYYPTNTEGPFAAIAVVPGFTATQSSISWWGPRLASHGFVVITIDTNSTFDQPASRATQLMAALNYVVSLSNTSSSPIYGKVDSNRLGVMGHSMGGGGTLIAARDNPTLKAAIPLAPWNSSTNFSSVTVPTLIIACENDTVAPVSSHASPFYNSIPSSTDKAYLEINGGDHFCANSGNSNKAILGKYGVAWMKRFLDNDTRYSPFLCGAPHQADLSGSAISEYRDNCPY", "plate clearing": "clears the plate (z > 3 vs empty vector)"}
{"protein": "unnamed (protein) MERKNSRRSWAIGLGLLVLAATSAHAQTNPYQKGPDPTSASLNATSGSFSVATSSVSSAVSGFGGGTIYYPTTTGTYAVLAISPGFTATQSSIAWLGRRIATHGFVVITIDTNSTLDQPPSRATQLMAALNYVTNSSSATVRAKVDASRRGVAGHSMGGGGTLYAARDNPSLKAAVPLTAWSTLKSFSSVQVPTLVVGAESDSIAPVSSHSIPFYNSLSGSLDKAYAELNGASHLAPNSTNTPIGRYSVAWVKRFMDNDTRYTPFLCGTPHT", "plate clearing": "not clears the plate"}
{"protein": "unnamed (protein) MIMKNIDRRLRHCAVGLGLLLLAAVAQAQTNPLAKGPDPTSDLLNATAGPFAVATTSVSSSVSGFGGGTVYYPTASGSYATVAVCPGFTATQSSIAWIGRRMASHGFVVMTINTNSTLDQPPSRATQLMAALRYLTNSSNSTVRARVDANRLGVAGHSMGGGGTLMAARDNPTLKAAVPMTPWSQTKSFSTVRVPTLIVGAENDSVAPVASHSIPFYTSLSGSLDKAYAELNNASHFAPNSTNTPIGRYSVAWVKRFMDNDTRY", "plate clearing": "not clears the plate"}
{"protein": "unnamed (protein) MDPSLKRALGLVVALTAAMLFSASASAQNPPPDDDPEPCQTDCDDGGNGGYTRGPDPTDSYLEASSGPYNVATSNVSSFVSGFGGGTIHYPTNTSGSMGGIVVIPGYVSYESSIEWWGPRLASHGFVVMTIDTNSIYDQPGSRKDQIDAALDYLVGQSNASSSAISGMVDGDRLAAVGWSMGGGGTLQLAAEPGRLKAAMPLAPWNSSFNDFDQIQTPTLIFACESDAVAPVSSHASPFYNDIPDATDKAFFEMNNGSHTCANGGNAYDELLGKYGVSWMKLHLDEDQRYEQFLCGPNHESEYQVS", "plate clearing": "not clears the plate"}
{"protein": "unnamed (protein) MPTPNTRPTPFGRLLQVTLAVSALALSLGAQAQQTGADPTTAILEAPAGPLAVSNVKVATPSGFGSGTVYYPTTGKGPYGLVSVTPGFVEGEWAINWLGPLLASHGFVVVTIGTTTILDAPTSRAKQMMAALKQVTALSATKTSPFAGKVDPSRLAVMGHSMGGGGSLDAARDNPNLKAAIPLAPWETTKDYSKITVPTLIVSCDSDVIAPVADHANKFYDSLTPTLTKALVEMKGAGHFCTNGTAIPATRTLVGKYSISWLKRFVDGDTRYSPFLCGAPHQADLAGSLISTYKGNCPY", "plate clearing": "not clears the plate"}
{"protein": "unnamed (protein) MKFQRFLQATVLAGATLLSFGAAAIEIGPAPTKASLEASRGPFSVGQFTVSRPSGYGAGTVYYPTNAGAKVGAIAIVPGFVSYQSSIAWWGPRLASHGFVVITIDTNTTVDQPDSRSRQQLAALDQVIALSKTSSSPIYNKVDENRTGVMGWSMGGGGSLISAKNRPSIKAAAPQAPWNSSTNFSSVTVPTLIFACQSDIVAPVAQHASPFYNSITRAPKQYLEKTLGDHFCFNSANATVGLKGVAWMKRFIDGDTRYTSFACSNPNALGFSDFRTARCS", "plate clearing": "not clears the plate"}
